Target: oocyst extract
Assay: antigen binding analysis on oocyst extract; method not stated

Kd: 0.55 nM
B1: Di-kappa-body (protein)
chain: QVQLQQSGPELVKPGASVKMSCKASGYTFTVYIIHWLKQKPGQGLEWIGYINPYNDGTKYNEKFRGKATLTSDKSSSTAYMELSSLTSEDSAVYYCARFYYGSSSVFDYWGQGTTLTVSSGGSGGSDVVMTQTQKFMSTSVGDRVSVTCKASQNVGTNVAWYQQKPGQSPKALIYSASYRYSGVPDRFTGSGSGTDFTLTISNVQSEDLAEYFCQQYNSYPLTFGAGTKLELKRTVAAPSVFIFPPSDEQLKSGTASVVCLLNNFYPREAKVQWKVDNALQSGNSQESVTEQDSKDSTYSLSSTLTLSKADYEKHKVYACEVTHQGLSSPVTKSFNRGEC

Source: patent EP2172481A1
